Consider 1 substance from publication PMC8686763, “Pre-Steady-State Kinetics of the SARS-CoV-2 Main Protease as a Powerful Tool for Antiviral Drug Discovery” (Frontiers in Pharmacology, 2021).

The target of the test is FRET substrate Dabcyl-[…]-E(Edans)-NH2 (SARS-CoV-2). Nature of the test: stopped-flow fluorescence kinetics (FRET signal of the Edans/Dabcyl peptide).

In general, Kd refers to the equilibrium constant for the complex coming apart. A low value points to tighter binding. A word on the koff: it is the rate constant with which the complex falls apart. The low end stands for slow dissociation, the high end for fast dissociation. For orientation: kon means the second-order rate constant of association. As for “SARS-CoV-2 main protease, catalytically inactive mutant C145A (enzyme)”, the Ka turned out to be 1.6e+06 M⁻¹, the Kd came out at 600 nM, the koff came to 0.18 s⁻¹ and the association rate constant (kon) is 280000 M⁻¹ s⁻¹.
